Data on 16 molecules can be found in US20250011428A1 (Novartis, published 2025).

Residue numbers refer to the chain shown, from its start.

B1: CD3_2 (antibody, human IgG1, lambda)
heavy: EVQLVESGGGLVQPGGSLKLSCAASGFTFNTYAMNWVRQASGKGLEWVGRIRSKYNNYATYYADSVKDRFTISRDDSKSTLYLQMNSLKTEDTAVYYCVRHGNFGNSYVSWFAYWGQGTLVTVSSASTKGPSVFPLAPSSKSTSGGTAALGCLVKDYFPEPVTVSWNSGALTSGVHTFPAVLQSSGLYSLSSVVTVPSSSLGTQTYICNVNHKPSNTKVDKRVEPKSCDKTHTCPPCPAPELCCHPSVFLFPPKPKDTLMISRTPEVTCVVVGLRHEDPEVKFNWYVDGVEVHNAKTKPREEQYCGCYRVVSVLTVLHQDWLNGKEYKCKVSNKALPAPIEKTISKAKGQPREPQVYTLPPSRDELTKNQVSLTCLVKGFYPSDIAVEWESNGQPENNYKTTPPVLDSDGSFFLYSKLTVDKSRWQQGNVFSCSVMHEALHNHYTQKSLSLSPGK
light: QAVVTQEPSLTVSPGGTVTLTCRSSTGAVTTSNYANWVQQKPGQAPRGLIGGTNKRAPWTPARFSGSLLGDKAALTLSGAQPEDEAEYFCALWYSNLWVFGGGTKLTVLGQPKAAPSVTLFPPSSEELQANKATLVCLISDFYPGAVTVAWKADSSPVKAGVETTTPSKQSNNKYAASSYLSLTPEQWKSHRSYSCQVTHEGSTVEKTVAPTECS
notes: hIgG1
B2: CD3_1_YTE (antibody, human IgG1, lambda)
heavy: B1 heavy with S247R, M260Y, S262T, T264E, V272T, H276D, R309S
light: B1 light
notes: hIgG1
B3: CD3_3_YTE (antibody, human IgG1, lambda)
heavy: B1 heavy with M260Y, S262T, T264E, V272T, H276D
light: B1 light
notes: hIgG1
B4: CD3_3 (antibody, human IgG1, lambda)
heavy: B1 heavy with V272T, H276D
light: B1 light
notes: hIgG1
B5: CD3_6_YTE (antibody, human IgG1, lambda)
heavy: B1 heavy with H245G, M260Y, S262T, T264E, G273D, L274V, R275S, C305N, G306S, C307T
light: B1 light
notes: hIgG1
B6: CD3_7_YTE (antibody, human IgG1, lambda)
heavy: B1 heavy with C243L, C244G, H245G, M260Y, S262T, T264E, G273D, L274V, R275S, G306S
light: B1 light
notes: hIgG1
B7: CD3_DANAPA (antibody, human IgG1, lambda, N297A)
heavy: B1 heavy with C243L, C244G, H245G, G273A, L274V, R275S, C305A, G306S, C307T, P337A
light: B1 light
notes: hIgG1; silencing benchmark
B8: CD3_4_YTE (antibody, human IgG1, lambda)
heavy: B1 heavy with M260Y, S262T, T264E, G273D, L274V, R275S
light: B1 light
notes: hIgG1
B9: CD3_5_YTE (antibody, human IgG1, lambda)
heavy: B1 heavy with H245G, M260Y, S262T, T264E, G273D, L274V, R275S, G306S
light: B1 light
notes: hIgG1
B10: CD3_WT_YTE (antibody, human IgG1, lambda)
heavy: EVQLVESGGGLVQPGGSLKLSCAASGFTFNTYAMNWVRQASGKGLEWVGRIRSKYNNYATYYADSVKDRFTISRDDSKSTLYLQMNSLKTEDTAVYYCVRHGNFGNSYVSWFAYWGQGTLVTVSSASTKGPSVFPLAPSSKSTSGGTAALGCLVKDYFPEPVTVSWNSGALTSGVHTFPAVLQSSGLYSLSSVVTVPSSSLGTQTYICNVNHKPSNTKVDKRVEPKSCDKTHTCPPCPAPELLGGPSVFLFPPKPKDTLYITREPEVTCVVVDVSHEDPEVKFNWYVDGVEVHNAKTKPREEQYNSTYRVVSVLTVLHQDWLNGKEYKCKVSNKALPAPIEKTISKAKGQPREPQVYTLPPSRDELTKNQVSLTCLVKGFYPSDIAVEWESNGQPENNYKTTPPVLDSDGSFFLYSKLTVDKSRWQQGNVFSCSVMHEALHNHYTQKSLSLSPGK
light: B1 light
notes: hIgG1
B11: CD3_4 (antibody, human IgG1, lambda)
heavy: B1 heavy with G273D, L274V, R275S
light: B1 light
notes: hIgG1
B12: CD3_9_YTE (antibody, human IgG1, lambda)
heavy: B10 heavy with L243C
light: B1 light
notes: hIgG1
B13: CD3_10 (antibody, human IgG1, lambda)
heavy: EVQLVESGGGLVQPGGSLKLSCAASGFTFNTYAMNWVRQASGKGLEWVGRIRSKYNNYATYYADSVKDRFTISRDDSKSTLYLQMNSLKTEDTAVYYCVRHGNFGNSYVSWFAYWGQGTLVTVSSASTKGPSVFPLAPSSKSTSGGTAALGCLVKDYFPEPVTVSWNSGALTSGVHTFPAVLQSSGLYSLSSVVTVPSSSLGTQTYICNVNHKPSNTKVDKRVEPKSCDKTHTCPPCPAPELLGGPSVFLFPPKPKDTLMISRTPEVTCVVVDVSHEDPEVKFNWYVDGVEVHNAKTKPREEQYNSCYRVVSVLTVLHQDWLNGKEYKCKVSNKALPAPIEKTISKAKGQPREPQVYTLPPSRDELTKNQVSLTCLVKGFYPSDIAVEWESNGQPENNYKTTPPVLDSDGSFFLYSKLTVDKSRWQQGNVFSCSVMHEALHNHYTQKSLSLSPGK
light: B1 light
notes: hIgG1
B14: CD3_8 (antibody, human IgG1, lambda)
heavy: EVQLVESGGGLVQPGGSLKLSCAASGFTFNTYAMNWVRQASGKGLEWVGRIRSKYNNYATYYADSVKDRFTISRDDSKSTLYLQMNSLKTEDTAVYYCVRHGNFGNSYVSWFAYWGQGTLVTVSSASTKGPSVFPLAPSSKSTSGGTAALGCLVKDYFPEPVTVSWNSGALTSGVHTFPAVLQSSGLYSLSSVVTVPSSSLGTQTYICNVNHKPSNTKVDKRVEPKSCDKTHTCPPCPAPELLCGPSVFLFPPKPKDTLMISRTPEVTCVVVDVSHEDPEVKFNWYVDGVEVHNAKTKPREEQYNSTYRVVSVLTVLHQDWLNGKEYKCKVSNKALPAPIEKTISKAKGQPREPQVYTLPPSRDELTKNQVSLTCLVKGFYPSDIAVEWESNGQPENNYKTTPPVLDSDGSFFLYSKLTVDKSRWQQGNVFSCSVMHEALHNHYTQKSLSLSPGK
light: B1 light
notes: hIgG1
B15: CD3_9 (antibody, human IgG1, lambda)
heavy: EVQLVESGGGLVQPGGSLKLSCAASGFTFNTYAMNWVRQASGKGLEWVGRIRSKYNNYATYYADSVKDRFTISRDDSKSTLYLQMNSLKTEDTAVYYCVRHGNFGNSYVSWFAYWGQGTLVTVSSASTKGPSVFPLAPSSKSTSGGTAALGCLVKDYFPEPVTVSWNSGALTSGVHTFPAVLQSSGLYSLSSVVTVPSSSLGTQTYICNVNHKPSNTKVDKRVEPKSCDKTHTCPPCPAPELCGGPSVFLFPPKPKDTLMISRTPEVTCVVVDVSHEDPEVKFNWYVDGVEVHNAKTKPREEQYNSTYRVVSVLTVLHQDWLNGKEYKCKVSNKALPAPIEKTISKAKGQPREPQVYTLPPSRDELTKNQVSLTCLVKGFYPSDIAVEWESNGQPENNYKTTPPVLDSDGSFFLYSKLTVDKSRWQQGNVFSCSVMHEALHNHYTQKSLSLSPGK
light: B1 light
notes: hIgG1
B16: CD3_11_YTE (antibody, human IgG1, lambda)
heavy: B10 heavy with N305C
light: B1 light
notes: hIgG1

T4 sequence (P08637 17-208 F176V): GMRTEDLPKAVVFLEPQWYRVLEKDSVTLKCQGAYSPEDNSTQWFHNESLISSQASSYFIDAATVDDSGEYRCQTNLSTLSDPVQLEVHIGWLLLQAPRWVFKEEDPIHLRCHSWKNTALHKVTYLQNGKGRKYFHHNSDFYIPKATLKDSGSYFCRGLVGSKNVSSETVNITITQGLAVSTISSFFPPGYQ

The target of one experiment is T1, hCD3epsilon-FC antigen (human, UniProt P07766 23-126).
T1 construct: immobilized by amine coupling on CM5; also called human CD3epsilon
T1 sequence (P07766 23-126 limits assumed): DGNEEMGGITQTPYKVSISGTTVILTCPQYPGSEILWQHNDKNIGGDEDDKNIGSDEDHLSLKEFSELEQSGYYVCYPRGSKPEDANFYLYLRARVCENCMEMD
The experiment can be described thus: SPR Biacore T200; hCD3epsilon-FC amine-coupled on CM5, IgG as analyte. More on the design: unit not given here. In general terms: In SPR one partner is held on a chip, and binding of the other changes the refractive index at the surface.
In the case of B1, the “Maximum response at 125 nM hIgG1” value was 386.
Consider B2, for which the “Maximum response at 125 nM hIgG1” value stood at 371.
Turning to B3, the “Maximum response at 125 nM hIgG1” value was determined as 371.
On to B4, for which the “Maximum response at 125 nM hIgG1” value came to 375.
Turning to B5, the “Maximum response at 125 nM hIgG1” value was determined as 340.
B6: the “Maximum response at 125 nM hIgG1” value was found to be 367.
For the molecule B7, the “Maximum response at 125 nM hIgG1” value was found to be 392.
Still for that read-out and setting: for B8 the value was 427.
Turning to B9, the “Maximum response at 125 nM hIgG1” value was found to be 322.
Regarding B10, the “Maximum response at 125 nM hIgG1” value is 342.
In the case of B11, the “Maximum response at 125 nM hIgG1” value was 470.

In another experiment the target is hC1q (human, UniProt P02745 23-245; P02746 28-253; P02747 29-245). The experiment can be described thus: SPR Biacore T200; IgG amine-coupled on CM5, hC1q as analyte; response normalized to parental (=100).
hC1q, sequence (P02745 23-245 limits assumed, chain 1 of 3): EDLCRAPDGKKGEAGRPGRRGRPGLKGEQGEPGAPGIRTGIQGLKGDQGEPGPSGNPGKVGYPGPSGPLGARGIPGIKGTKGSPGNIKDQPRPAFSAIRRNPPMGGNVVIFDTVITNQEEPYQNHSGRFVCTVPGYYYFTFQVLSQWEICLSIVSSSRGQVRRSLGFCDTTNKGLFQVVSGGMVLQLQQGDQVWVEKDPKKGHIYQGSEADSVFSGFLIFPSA
hC1q, sequence (P02746 28-253 limits assumed, chain 2 of 3): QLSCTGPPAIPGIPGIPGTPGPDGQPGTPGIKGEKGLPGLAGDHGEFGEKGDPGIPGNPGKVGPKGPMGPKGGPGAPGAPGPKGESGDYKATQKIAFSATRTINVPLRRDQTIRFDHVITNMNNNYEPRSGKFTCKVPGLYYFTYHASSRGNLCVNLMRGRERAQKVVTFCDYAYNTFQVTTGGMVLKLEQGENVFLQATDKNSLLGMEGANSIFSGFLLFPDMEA
hC1q, sequence (P02747 29-245 limits assumed, chain 3 of 3): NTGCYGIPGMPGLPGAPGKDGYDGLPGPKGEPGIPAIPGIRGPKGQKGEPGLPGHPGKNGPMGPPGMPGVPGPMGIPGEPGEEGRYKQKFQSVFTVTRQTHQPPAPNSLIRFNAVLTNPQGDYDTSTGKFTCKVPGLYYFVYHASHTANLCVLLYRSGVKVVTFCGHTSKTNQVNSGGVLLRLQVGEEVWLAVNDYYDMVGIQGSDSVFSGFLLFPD
Description: (§1) Kinetics and binding capacity were measured on a BIAcore® T200 instrument (GE Healthcare, Glattbrugg, Switzerland) at room temperature, with proteins diluted in running buffer 10 mM NaP, 150 mM NaCl, 0.05% Tween 20, pH7.6. A CM5 sensor chip (Sensor Chip SA, GE Healthcare Life Sciences) was used to immobilized engineered immunoglobulins by amine coupling. Then, recombinant human hFcγR1a, or recombinant human hFcγR3a (F158V), or recombinant human hFcRn, or hC1q was used as the analyte.
(§2) Binding data were acquired by subsequent injection of analyte dilution series on the reference and measuring flow cells. Zero concentration samples (running buffer only) were included to allow double referencing during data evaluation. For data evaluation, doubled referenced sensorgrams were analyzed and the maximum response reached during the experiment was monitored. Maximum response describes the binding capacity of the surface in terms of the response at saturation. Finally, measured maximum responses were normalized to the one measured using parental immunoglobulin (not engineered).
Regarding B12, the “Maximum response at 20 nM hC1q (RU)” value was 4 RU.
As to B13, the “Maximum response at 20 nM hC1q (RU)” value came to 3 RU.
Regarding B7, the “Maximum response at 20 nM hC1q (RU)” value turned out to be 1 RU.
On the same count and under the same terms, next, B14: 1 RU; B15: 10 RU; B16: 1 RU.

For the next experiment, the target named is T2, recombinant human hFcRn (human, UniProt P55899 24-297; P61769 21-119).
T2 construct: FcRn is normally a heterodimer with it
T2 sequence (P55899 24-297 limits assumed, chain 1 of 2): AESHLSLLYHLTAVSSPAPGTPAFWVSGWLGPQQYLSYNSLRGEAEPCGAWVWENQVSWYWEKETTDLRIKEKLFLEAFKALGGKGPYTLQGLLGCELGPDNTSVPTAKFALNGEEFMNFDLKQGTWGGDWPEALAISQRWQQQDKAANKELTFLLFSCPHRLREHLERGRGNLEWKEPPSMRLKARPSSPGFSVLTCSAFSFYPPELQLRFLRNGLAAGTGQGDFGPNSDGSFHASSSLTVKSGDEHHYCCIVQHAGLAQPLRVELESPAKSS
T2 sequence (P61769 21-119 limits assumed, chain 2 of 2): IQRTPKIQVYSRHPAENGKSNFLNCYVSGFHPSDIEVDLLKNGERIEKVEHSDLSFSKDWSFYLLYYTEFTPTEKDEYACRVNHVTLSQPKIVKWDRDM
Description: SPR Biacore T200; IgG amine-coupled on CM5, hFcRn as analyte; response normalized to parental (=100).
Description: as §1, §2
As to B2, the “Maximum response at 1840 nM hFcRn (RU)” value amounted to 290 RU.
On the same count and under the same terms, next, B5: 720 RU; B12: 696 RU.
As to B13, the “Maximum response at 1840 nM hFcRn (RU)” value worked out at 126 RU.
On to B6, for which the “Maximum response at 1840 nM hFcRn (RU)” value is 284 RU.
For the molecule B14, the “Maximum response at 1840 nM hFcRn (RU)” value stood at 126 RU.
For B9, the “Maximum response at 1840 nM hFcRn (RU)” value is 340 RU.
Turning to B10, the “Maximum response at 1840 nM hFcRn (RU)” value is 586 RU.
For B15, the “Maximum response at 1840 nM hFcRn (RU)” value stood at 122 RU.
Same read-out and setting: next, B16: 230 RU.

The next experiment deals with T3, recombinant human hFcγR1a (human, UniProt P12314 16-288, limits assumed).
T3 construct: recombinant, analyte in SPR; also called FcγRI
T3 sequence (P12314 16-288 limits assumed): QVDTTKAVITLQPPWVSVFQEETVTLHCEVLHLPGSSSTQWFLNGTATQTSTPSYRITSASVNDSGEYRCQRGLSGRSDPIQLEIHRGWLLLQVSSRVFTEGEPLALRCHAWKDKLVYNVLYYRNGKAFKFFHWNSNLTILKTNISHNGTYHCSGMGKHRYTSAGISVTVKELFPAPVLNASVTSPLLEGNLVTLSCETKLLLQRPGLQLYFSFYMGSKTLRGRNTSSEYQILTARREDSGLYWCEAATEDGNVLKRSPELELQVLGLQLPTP
The experiment can be described thus: SPR Biacore T200; IgG amine-coupled on CM5, receptor as analyte; response normalized to parental (=100).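 Further: measured at room temperature in pH 7.6 phosphate buffer with Tween 20, double-referenced sensorgrams, maximum response taken as binding capacity at saturation.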
Description: as §1, §2
On to B1, for which the “Maximum response at 100 nM hFcγR1a (RU)” value worked out at 5 RU.
For B2, the “Maximum response at 100 nM hFcγR1a (RU)” value worked out at 6 RU.
Turning to B3, the “Maximum response at 100 nM hFcγR1a (RU)” value was 7 RU.
For B4, the “Maximum response at 100 nM hFcγR1a (RU)” value was determined as 3 RU.
As to B5, the “Maximum response at 100 nM hFcγR1a (RU)” value stood at 10 RU.
As for B12, the “Maximum response at 100 nM hFcγR1a (RU)” value turned out to be 2 RU.
Take B13: the “Maximum response at 100 nM hFcγR1a (RU)” value is 18 RU.
Take B6: the “Maximum response at 100 nM hFcγR1a (RU)” value was determined as 31 RU.
Consider B7, for which the “Maximum response at 100 nM hFcγR1a (RU)” value came to 6 RU.
For the molecule B8, the “Maximum response at 100 nM hFcγR1a (RU)” value was 4 RU.
With B14, the “Maximum response at 100 nM hFcγR1a (RU)” value was 2 RU.
In the case of B9, the “Maximum response at 100 nM hFcγR1a (RU)” value worked out at 7 RU.
Same read-out and setting: for B10 the value was 97 RU.
In the case of B15, the “Maximum response at 100 nM hFcγR1a (RU)” value was 2 RU.
Consider B11, for which the “Maximum response at 100 nM hFcγR1a (RU)” value is 4 RU.
In the case of B16, the “Maximum response at 100 nM hFcγR1a (RU)” value was determined as 12 RU.

A further experiment has as its target T4, recombinant human hFcγR3a (F158V) (human, UniProt P08637 17-208).
T4 construct: also called FcγRIII
The experiment is described as above.
Description: as §1, §2
In the case of B1, the “Maximum response at 300 nM hFcγR3a F158V (RU)” value amounted to 20 RU.
For B2, the “Maximum response at 300 nM hFcγR3a F158V (RU)” value is 20 RU.
Turning to B3, the “Maximum response at 300 nM hFcγR3a F158V (RU)” value is 10 RU.
For the molecule B4, the “Maximum response at 300 nM hFcγR3a F158V (RU)” value stood at 2 RU.
On to B5, for which the “Maximum response at 300 nM hFcγR3a F158V (RU)” value came to 15 RU.
For the molecule B6, the “Maximum response at 300 nM hFcγR3a F158V (RU)” value was determined as 19 RU.
For B7, the “Maximum response at 300 nM hFcγR3a F158V (RU)” value was found to be 10 RU.
As to B8, the “Maximum response at 300 nM hFcγR3a F158V (RU)” value was found to be 10 RU.
B9: the “Maximum response at 300 nM hFcγR3a F158V (RU)” value is 17 RU.
Consider B10, for which the “Maximum response at 300 nM hFcγR3a F158V (RU)” value was determined as 71 RU.
Same read-out and setting: for B11 the value was 10 RU.

Another experiment concerns the target T1, hCD3epsilon-FC antigen. Description: SPR Biacore T200; hCD3epsilon-FC amine-coupled on CM5, IgG as analyte; 1:1 model, apparent KD (bivalent analyte).
Description: A CM5 sensor chip (Sensor Chip SA, GE Healthcare Life Sciences) was used to immobilize hCD3epsilon-FC antigen by amine coupling. Then, engineered anti-CD3 hIgG1 were used as the analyte.
Binding data were acquired by subsequent injection of analyte dilution series on the reference and measuring flow cells. Zero concentration samples (running buffer only) were included to allow double referencing during data evaluation. For data evaluation, doubled referenced sensorgrams were analyzed by applying a 1:1 binding model analysis to generate the equilibrium dissociation constant (KD). Binding constant described Table 7 are considered as apparent KD since immunoglobulins used as analyte are bivalent for the immobilized antigen. In addition, maximum response reached during the experiment was monitored. Maximum response describes the binding capacity of the surface in terms of the response at saturation. Finally, measured maximum responses were normalized to the one measured using parental immunoglobulin (not engineered).
In the case of B1, the Kd amounted to 2.24 nM.
Consider B2, for which the Kd worked out at 2.09 nM.
B3: the Kd was determined as 2.1 nM.
Same read-out and setting: for B4 the value was 2.04 nM.
On the same count and under the same terms, next, B5: 2.42 nM; B6: 2.31 nM.
On the same count and under the same terms, next, B7: 3.27 nM; B8: 2.74 nM; B9: 3.74 nM.
In the case of B10, the Kd was determined as 2.34 nM.
B11: the Kd amounted to 3.38 nM.
